Among the data in the Human Domainome abundance scans (Beltran et al. 2025) are abundance fitness values, retold here.

± gives the uncertainty stated by the source.

The chains are these.
B1: Zinc finger MYM-type protein 3, residues 589 to 668; numbered along this chain, Q14202 (parent)
chain: LSCHYCHSLFSGKPEVLDWQDQVFQFCCRDCCEDFKRLRGVVSQCEHCRQEKLLHEKLRFSGVEKSFCSEGCVLLYKQDF

The variants in the data set derive from B1. As to the kind of experiment: abundance fitness (aPCA) (normalised: wild type 0, dead -1); higher = more abundant; growth selection in yeast, the domain comes from the species named. Conditions: Homo sapiens.
On to LTCHYCHSLFSGKPEVLDWQDQVFQFCCRDCCEDFKRLRGVVSQCEHCRQEKLLHEKLRFSGVEKSFCSEGCVLLYKQDF [S2T], for which the abundance fitness was -0.051 ± 0.068.

Consider LSCHYCHSLFSGKPEVLDWQDQVFQFCCRDCCEDFKRLRGVVSQCEHCRQEKLLHEKLRFSGVEKSSCSEGCVLLYKQDF [F67S], for which the abundance fitness was -0.297 ± 0.18.

Regarding LSCHYCHSLFSGKPEVLDWQDQVFQFCCRDCCEDFKRLRGVVSQCEHCRQEKLLHEKLRFSGVEKSFCSEHCVLLYKQDF [G71H], the abundance fitness is -0.037 ± 0.32. LSCHYCHSLFSGKPEVLDWQDQVFQFCCRDCCEDFKRLRGVVSQCEHCRQEKLLHEKLRFSGVEKSFCSEICVLLYKQDF [G71I]: the abundance fitness worked out at 0.317 ± 0.42. In the case of LSCHYCHSLFSGKPEVLDWQDQVFQFCCRDCCEDFKRLRGVVSQCEHCRQEKLLHESLRFSGVEKSFCSEGCVLLYKQDF [K57S], the abundance fitness is -0.361 ± 0.15. With LSCHYCHSLFSGKPEVLDWQDQVFQFCCRDCCEDFKRLRGVVSQCEHCRQRKLLHEKLRFSGVEKSFCSEGCVLLYKQDF [E51R], the abundance fitness is -0.198 ± 0.084.

As to LSCHYCHSLFSGKPEVLDWQDQVFQFCCRDCCEDFKRLRGVVSQCEHCRQEKLLHEKLRFSGVEKSFCSEGCVLPYKQDF [L75P], the abundance fitness is -0.268 ± 0.2. Consider LSCHYCHSLFSGKPEVLDWQDQVFQFCCRDCCEDFKRLRGVVSQCEHCRQEKLLHEKLRFSGVEASFCSEGCVLLYKQDF [K65A], for which the abundance fitness is -0.268 ± 0.16.

With LSCHYCHSLFSGGPEVLDWQDQVFQFCCRDCCEDFKRLRGVVSQCEHCRQEKLLHEKLRFSGVEKSFCSEGCVLLYKQDF [K13G], the abundance fitness was -0.162 ± 0.044. For LSCHYCHSLFSGSPEVLDWQDQVFQFCCRDCCEDFKRLRGVVSQCEHCRQEKLLHEKLRFSGVEKSFCSEGCVLLYKQDF [K13S] the value was -0.062 ± 0.053; for LSCHYCHSLFSGKPEVLDWQDQVFQFCCRDCCEDFKRLRGVVSQCEHCRQEKLLHEKLRFPGVEKSFCSEGCVLLYKQDF [S61P], -0.424 ± 0.24; for LSCHYCHSLFSGKPEVLDWQSQVFQFCCRDCCEDFKRLRGVVSQCEHCRQEKLLHEKLRFSGVEKSFCSEGCVLLYKQDF [D21S], -0.065 ± 0.045.

With LSCHYCHSLSSGKPEVLDWQDQVFQFCCRDCCEDFKRLRGVVSQCEHCRQEKLLHEKLRFSGVEKSFCSEGCVLLYKQDF [F10S], the abundance fitness is -0.316 ± 0.053.

Regarding LSCHYCHSLFSGKPEVLDWQDQVFQFCCRDCCEDFKRLRGVVSQCEHCRQEKLLHEKLRFSGVEKKFCSEGCVLLYKQDF [S66K], the abundance fitness is 0.067 ± 0.11. On to LSCHYCHSLFSGKPEVLDWQDQVFQFCCRDCCEDFKRLRGVVSQCEHCRQEKLLHEKLRFSGVEKSFCSEGCVLLYGQDF [K77G], for which the abundance fitness is -0.404 ± 0.12. As to LSCHYCHSLFSGKPEVLDWQDQVFQFCCRDCCEDFKRLRGVVSQCEHCRQEKLLHEKLRFSGVEKSFCSEGCVLLYTQDF [K77T], the abundance fitness was -0.108 ± 0.16. Consider LSCHYCHSLFSGKPEVLDWQDQVFQFCCRDCCEDFKRLRGVVSQCEHCRQEKLLHEKLRFSGVEKSFCCEGCVLLYKQDF [S69C], for which the abundance fitness came to 0.093 ± 0.19. As for LSCHYCHSLFSGKPEVLDWQDQVFQFCCRDCCEDFKRLRGVVSQCEHCRQEKLLHEKLRFSGVEKSFCSEGCVLLYKQDV [F80V], the abundance fitness amounted to 0.281 ± 0.094. Turning to LSCHYCHSLFSGKPEVLDWQDQVFQFCCRDCCEDFKRLRGVVSQCEHCRQEKLLHEKLRFSGVEKSFCSEGCVLLYKQDG [F80G], the abundance fitness turned out to be 0.033 ± 0.14. As for LSCHYCHSLFSGKPEVLDWQDQVFQFCCRDCCEDFKRLRGVVSQCEHCRQEKLLTEKLRFSGVEKSFCSEGCVLLYKQDF [H55T], the abundance fitness was determined as 0.431 ± 0.09. As for LSCHYCHSLFSGKPEVLDWQDQVFQFCCRMCCEDFKRLRGVVSQCEHCRQEKLLHEKLRFSGVEKSFCSEGCVLLYKQDF [D30M], the abundance fitness was 0.3 ± 0.045. For LSCHYCHSLFSGKPEVLDWQDQVFQFCCRCCCEDFKRLRGVVSQCEHCRQEKLLHEKLRFSGVEKSFCSEGCVLLYKQDF [D30C] the value was 0.008 ± 0.053. With LSCHYCHSLFSGKPEVLDWQDQVFQFCCRLCCEDFKRLRGVVSQCEHCRQEKLLHEKLRFSGVEKSFCSEGCVLLYKQDF [D30L], the abundance fitness is -0.012 ± 0.041. For the variant LSCHYCHSLFSGKPEVLDWQDQVFQFCCRDCCEDFKRLRGVVSQCEHCRQEKLLHFKLRFSGVEKSFCSEGCVLLYKQDF [E56F], the abundance fitness came out at 0.467 ± 0.23. For LSCHYCHSLFSGKPEVLDWQDQVFQFCCRDCCEDFKRLRGVVSQCEHCRQEKLLHLKLRFSGVEKSFCSEGCVLLYKQDF [E56L], the abundance fitness came to 0.131 ± 0.12. On to LSCHYCHSLFSGKPEVLDWQDQVFQFCCRDCCEDFKRLRGVVSQCEHCRQEKLLHEKLRFSLVEKSFCSEGCVLLYKQDF [G62L], for which the abundance fitness is -1.05 ± 0.27. For LSCHYCHSLFSGKPEVLDWQDQVFQFCCRDCCEDFKRLRGVVSQCEHCRQEKLLHEKLRFSGVHKSFCSEGCVLLYKQDF [E64H] the value was -0.355 ± 0.34; for LSCHYCHSLFSGKPEVLDWQDQVFQFCCRDCCEDFKRLRGVVSQCEHCRQEKLLHEKLRFSGVRKSFCSEGCVLLYKQDF [E64R], -0.692 ± 0.16; for LSCHYCHSLFSGKPEVLDWQDQVFQFCCRDCCEDFKRLRGVVSQCEHCRQEKLLHEKLRFSGVDKSFCSEGCVLLYKQDF [E64D], 0.047 ± 0.31.

Consider LSCHYCHSLFSGKPEVLDWQDWVFQFCCRDCCEDFKRLRGVVSQCEHCRQEKLLHEKLRFSGVEKSFCSEGCVLLYKQDF [Q22W], for which the abundance fitness is -0.054 ± 0.044. For the variant LSCHYCHSLFSGKPEVLDWQDFVFQFCCRDCCEDFKRLRGVVSQCEHCRQEKLLHEKLRFSGVEKSFCSEGCVLLYKQDF [Q22F], the abundance fitness came to 0.047 ± 0.068. Turning to LSCHYCHSLFSGKPEVLDWQDQVFQVCCRDCCEDFKRLRGVVSQCEHCRQEKLLHEKLRFSGVEKSFCSEGCVLLYKQDF [F26V], the abundance fitness is -0.515 ± 0.048. For the variant LSCHYCHSLFSGKPTVLDWQDQVFQFCCRDCCEDFKRLRGVVSQCEHCRQEKLLHEKLRFSGVEKSFCSEGCVLLYKQDF [E15T], the abundance fitness worked out at 0.076 ± 0.062. Regarding LSCHYCHSLFSGKPEVLDWQDQVFQFCCRDCCEDFKRLRGVVVQCEHCRQEKLLHEKLRFSGVEKSFCSEGCVLLYKQDF [S43V], the abundance fitness was 0.286 ± 0.11. With LSCHYCHSLFSGKPEVLDWQDQVFQFCCRDCCEDFKRLRGVVFQCEHCRQEKLLHEKLRFSGVEKSFCSEGCVLLYKQDF [S43F], the abundance fitness is -0.144 ± 0.3.
